T1: hFZD8 CRD-Fc (human, UniProt Q9H461 28-158, limits assumed)
T1 construct: domain: CRD; bought (R&D Systems); not shown: Fc part
T1 sequence (looked up): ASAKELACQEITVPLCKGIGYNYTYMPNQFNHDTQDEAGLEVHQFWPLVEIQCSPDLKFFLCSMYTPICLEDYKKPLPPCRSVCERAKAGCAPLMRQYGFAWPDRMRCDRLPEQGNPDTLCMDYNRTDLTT


These binders were tested against T2, hFZD7 CRD-Fc (human, UniProt O75084 33-185) (assay: spot phage ELISA).

Row | S/N | S/W | Binder
1 | 53 | 2.9 | VPADALAVWCDVMY [SEQ ID NO 66]
2 | 53.5 | 3 | LAADDLESWCHVMY [SEQ ID NO 60]
3 | 54.2 | 3 | VAADALEFWCHVMY [SEQ ID NO 55]
4 | 44.5 | 2.3 | AAADDVASWCHVMY [SEQ ID NO 87]
5 | 48 | 3 | LPAADLAAWCHVMY [SEQ ID NO 82]
6 | 46.7 | 3.1 | LPADDLAAWCHVMY [SEQ ID NO 84]
7 | 2.1 | 0.1 | VPSDDLEFWCAVMY [SEQ ID NO 95]
8 | 58.6 | 3.1 | APSDDVAFWCHVMY [SEQ ID NO 42]
9 | 50.8 | 2.7 | AAADDLAAWCHVVY [SEQ ID NO 98]
10 | 60.7 | 3.4 | VAADDLAAWCHVMY [SEQ ID NO 39]
11 | 53.5 | 3 | VASDDLASWCHAMY [SEQ ID NO 62]
12 | 44.8 | 2.5 | VASDDLASWCHVVY [SEQ ID NO 86]
13 | 50.2 | 2.7 | APSDDLEAWCDVMY [SEQ ID NO 75]
14 | 49.8 | 2.7 | VPSDDLEAWCDVMY [SEQ ID NO 76]
15 | 58.3 | 3.1 | APSDDLEFWCHVMY [SEQ ID NO 44]
16 | 44.9 | 2.9 | PPADDLAFWCDVMY [SEQ ID NO 85]
17 | 55.7 | 3 | AASDDLAAWCHVMY [SEQ ID NO 49]
18 | 48.2 | 3.1 | AAADDLAFWCHVMY [SEQ ID NO 80]
19 | 54 | 3.1 | AAADDLAAWCDVMY [SEQ ID NO 57]

Row | S/N | S/W | Binder
20 | 50.6 | 3.2 | APADDLAFWCHVVY [SEQ ID NO 74]
21 | 58.1 | 3.1 | APADDLEAWCHVMY [SEQ ID NO 45]
22 | 53.5 | 3.2 | APADDLASWCHVMY [SEQ ID NO 61]
23 | 52 | 3.3 | APSDDLASWCHVMY [SEQ ID NO 71]
24 | 53.4 | 3.1 | VPADDLASWCHVMY [SEQ ID NO 63]
25 | 55.6 | 2.9 | AASDDLESWCHVMY [SEQ ID NO 50]
26 | 52.2 | 3.1 | VPSDDLASWCHVMY [SEQ ID NO 68]
27 | 58.6 | 3.1 | APADDVEFWCHVMY [SEQ ID NO 43]
28 | 57.2 | 3.1 | APSDDLEFWCHAMY [SEQ ID NO 46]
29 | 54 | 3.2 | VASDDLEFWCHVMY [SEQ ID NO 58]
30 | 56.1 | 3.1 | AAADDLEFWCHVMY [SEQ ID NO 48]
31 | 53.2 | 3 | VPSDDLAFWCHVMY [SEQ ID NO 65]
32 | 49.7 | 3.1 | AASDDLAFWCHVMY [SEQ ID NO 77]
33 | 54 | 2.9 | APSDDLAAWCHVVY [SEQ ID NO 56]
34 | 45 | 2.5 | APSDDLAFWCHVVY [SEQ ID NO 97]
35 | 49.2 | 2.9 | VPADDLASWCDVMY [SEQ ID NO 78]
36 | 51.3 | 3 | APSDDLAAWCHVMY [SEQ ID NO 73]
37 | 23.8 | 2.8 | LPADDLAFWCDVMY [SEQ ID NO 92]
38 | 57 | 3.1 | VASDDLEAWCHVMY [SEQ ID NO 47]

Row | S/N | S/W | Binder
39 | 36.3 | 1.9 | APADDLEFWCHAMY [SEQ ID NO 89]
40 | 53.9 | 2.9 | APADDLESWCHVMY [SEQ ID NO 96]
41 | 40.7 | 3 | VAADDLAFWCDVMY [SEQ ID NO 88]
42 | 52.1 | 3.1 | AASDDLEAWCHVMY [SEQ ID NO 70]
43 | 27.4 | 3.1 | APSDDLAFWCDVMY [SEQ ID NO 91]
44 | 55.1 | 3 | APADDLAFWCHVMY [SEQ ID NO 51]
45 | 54.4 | 3.1 | AAADDLEVWCHVMY [SEQ ID NO 54]
46 | 47.3 | 2.8 | VPSADLETWCHVMY [SEQ ID NO 83]
47 | 48.6 | 2.9 | LPSADLESWCHVMY [SEQ ID NO 79]
48 | 8.5 | 2.7 | AAADDLAFWCDVMY [SEQ ID NO 93]
49 | 48.1 | 3 | LASDDLEFWCHVMY [SEQ ID NO 81]
50 | 52.7 | 3.1 | VPADDLAFWCHVMY [SEQ ID NO 67]
51 | 33.8 | 3 | APADDLAFWCDVMY [SEQ ID NO 90]
52 | 54.9 | 3.1 | LPADDLAVWCDVMY [SEQ ID NO 52]
53 | 51.6 | 3 | APADDLEFWCHVMY [SEQ ID NO 72]
54 | 52.2 | 2.9 | VPSADLESWCHVMY [SEQ ID NO 69]
55 | 53.2 | 3.1 | APADDLEFWCHVVY [SEQ ID NO 64]
56 | 54.5 | 3 | LPSDDLESWCHVMY [SEQ ID NO 53]
57 | 53.6 | 3.1 | AAADDLEAWCAVMY [SEQ ID NO 59]

The binders below were run against T1, hFZD8 CRD-Fc (assay: spot phage ELISA).

Row | signal:noise ratio | Binder
58 | 3.1 | ACSYVIDLWNQCLT [SEQ ID NO 4]
59 | 1.1 | LPSDDLEFWCHVMY (also called Fz7-21) [SEQ ID NO 13]
60 | 1.6 | YEHLHDLMDLIRPW (also called Fz7-07) [SEQ ID NO 1]

Biological target: T2, hFZD7 CRD-Fc
Assay: spot phage ELISA
Remark: another data set of the same source

Row | signal:noise ratio | Binder
61 | 27.8 | FWMQLQDGFAIWFP [SEQ ID NO 15]
62 | 26.8 | ACSYVIDLWNQCLT [SEQ ID NO 4]
63 | 24.5 | LPSDDLEFWCHVMY (also called Fz7-21) [SEQ ID NO 13]
64 | 23.2 | YEHLHDLMDLIRPW (also called Fz7-07) [SEQ ID NO 1]
